± gives the standard deviation of the averaged measurements.
Assay: total protein half-life in vivo (active degradation + dilution); higher = more stable protein
[1] = E. coli NCM3722 delta-clpP delta-lon delta-hslV, growth: N-lim chemostat, doubling time 6 h
[2] = E. coli NCM3722 delta-clpP, growth: N-lim chemostat, doubling time 6 h
[3] = E. coli NCM3722 delta-hslV, growth: N-lim chemostat, doubling time 6 h
[4] = E. coli NCM3722 delta-lon, growth: N-lim chemostat, doubling time 6 h
[5] = E. coli NCM3722 delta-smpB, growth: N-lim chemostat, doubling time 6 h
[6] = wild type E. coli NCM3722, growth: C-lim chemostat, doubling time 3 h
[7] = wild type E. coli NCM3722, growth: C-lim chemostat, doubling time 6 h
[8] = wild type E. coli NCM3722, growth: C-lim chemostat, doubling time 12 h
[9] = wild type E. coli NCM3722, growth: N-lim chemostat, doubling time 6 h
[10] = wild type E. coli NCM3722, growth: N-lim chemostat, doubling time 12 h
[11] = wild type E. coli NCM3722, growth: P-lim chemostat, doubling time 6 h
[12] = wild type E. coli NCM3722, growth: P-lim chemostat, doubling time 12 h

| Sequence | total protein half-life in vivo [1] [h] | total protein half-life in vivo [2] [h] | total protein half-life in vivo [3] [h] | total protein half-life in vivo [4] [h] | total protein half-life in vivo [5] [h] | total protein half-life in vivo [6] [h] | total protein half-life in vivo [7] [h] | total protein half-life in vivo [8] [h] | total protein half-life in vivo [9] [h] | total protein half-life in vivo [10] [h] | total protein half-life in vivo [11] [h] | total protein half-life in vivo [12] [h] |
| --- | --- | --- | --- | --- | --- | --- | --- | --- | --- | --- | --- | --- |
| MLELLYTALLYLIQPLIWIRLWVRGRKAPAYRKRWGERYGFYRHPLKPGGIMLHSVSVGETLAAIPLVRALRHRYPDLPITVTTMTPTGSERVQSAFGKDVQHVYLPYDLPDALNRFLNKVDPKLVLIMETELWPNLIAALHKRKIPLVIANARLSARSAAGYAKLGKFVRRLLRRITLIAAQNEEDGARFVALGAKNNQVTVTGSLKFDISVTPQLAAKAVTLRRQWAPHRPVWIATSTHEGEESVVIAAHQALLQQFPNLLLILVPRHPERFPDAINLVRQAGLSYITRSSGEVPSTSTQVVVGDTMGELMLLYGIADLAFVGGSLVERGGHNPLEAAAHAIPVLMGPHTFNFKDICARLEQASGLITVTDATTLAKEVSSLLTDADYRSFYGRHAVEVLYQNQGALQRLLQLLEPYLPPKTH [P0AC75] | 5.95 ± 0.12 | 6.64 ± 0.62 | 6.5 ± 0.35 | 6.08 ± 0.49 | 6.219 ± 0.038 | 3.23 ± 0.044 | 6.2 ± 0.5 | 10.6 ± 1.9 | 6.524 ± 0.011 | 13.7 ± 1.2 | 6.317 ± 0.014 | 11.9 ± 0.48 |
| MLERLSWKRLVLELLLCCLPAFILGAFFGYLPWFLLASVTGLLIWHFWNLLRLSWWLWVDRSMTPPPGRGSWEPLLYGLHQMQLRNKKRRRELGNLIKRFRSGAESLPDAVVLTTEEGGIFWCNGLAQQILGLRWPEDNGQNILNLLRYPEFTQYLKTRDFSRPLNLVLNTGRHLEIRVMPYTHKQLLMVARDVTQMHQLEGARRNFFANVSHELRTPLTVLQGYLEMMNEQPLEGAVREKALHTMREQTQRMEGLVKQLLTLSKIEAAPTHLLNEKVDVPMMLRVVEREAQTLSQKKQTFTFEIDNGLKVSGNEDQLRSAISNLVYNAVNHTPEGTHITVRWQRVPHGAEFSVEDNGPGIAPEHIPRLTERFYRVDKARSRQTGGSGLGLAIVKHAVNHHESRLNIESTVGKGTRFSFVIPERLIAKNSD | 6.39 ± 0.09 | 6.38 ± 0.28 | 5.95 ± 1.3 | – | 6.31 ± 0.26 | 3.118 ± 0.019 | 5.82 ± 0.35 | 12.3 ± 1.7 | 6.4435 ± 0.0015 | 12.7 ± 2 | 6.19 ± 0.21 | 12.2 ± 0.24 |
| MLHPRARTMLLLSLPAVAIGIASSLILIVVMKIASVLQNLLWQRLPGTLGIAQDSPLWIIGVLTLTGIAVGLVIRFSQGHAGPDPACEPLIGAPVPPSALPGLIVALILGLAGGVSLGPEHPIMTVNIALAVAIGARLLPRVNRMEWTILASAGTIGALFGTPVAAALIFSQTLNGSSEVPLWDRLFAPLMAAAAGALTTGLFFHPHFSLPIAHYGQMEMTDILSGAIVAAIAIAAGMVAVWCLPRLHAMMHQMKNPVLVLGIGGFILGILGVIGGPVSLFKGLDEMQQMVANQAFSTSDYFLLAVIKLAALVVAAASGFRGGRIFPAVFVGVALGLMLHEHVPAVPAAITVSCAILGIVLVVTRDGWLSLFMAAVVVPNTTLLPLLCIVMLPAWLLLAGKPMMMVNRPKQQPPHDNV | – | 6.28 | 7.8 | 5.98 | – | – | – | 11.1 | 6.78 | 12.5 | – | > 16 |
| MLHTANPVIKHKAGLLNLAEELSNVSKACKIMGVSRDTFYRYRELVAEGGVDAQINRSRRAPNLKNRTDEATEQAVVDYAVAFPTHGQHRASNELRKQGVFISDSGVRSVWLLHNLENLKRRY | 5.09 ± 0.95 | – | – | – | – | – | – | – | – | – | – | – |
| MLILISPAKTLDYQSPLTTTRYTLPELLDNSQQLIHEARKLTPPQISTLMRISDKLAGINAARFHDWQPDFTPANARQAILAFKGDVYTGLQAETFSEDDFDFAQQHLRMLSGLYGVLRPLDLMQPYRLEMGIRLENARGKDLYQFWGDIITNKLNEALAAQGDNVVINLASDEYFKSVKPKKLNAEIIKPVFLDEKNGKFKIISFYAKKARGLMSRFIIENRLTKPEQLTGFNSEGYFFDEDSSSNGELVFKRYEQR [P0A8I3] | 2.9 ± 0.42 | 2.57 ± 0.31 | 2.665 ± 0.025 | 3.07 ± 0.18 | 2.63 ± 0.37 | 2.66 ± 0.069 | 3.57 ± 0.5 | 6.32 ± 0.39 | 2.53 ± 0.26 | 3.4738 ± 0.0021 | 3.39 ± 0.057 | 6.11 ± 0.75 |
| MLILLGYLVVLGTVFGGYLMTGGSLGALYQPAELVIIAGAGIGSFIVGNNGKAIKGTLKALPLLFRRSKYTKAMYMDLLALLYRLMAKSRQMGMFSLERDIENPRESEIFASYPRILADSVMLDFIVDYLRLIISGHMNTFEIEALMDEEIETHESEAEVPANSLALVGDSLPAFGIVAAVMGVVHALGSADRPAAELGALIAHAMVGTFLGILLAYGFISPLATVLRQKSAETSKMMQCVKVTLLSNLNGYAPPIAVEFGRKTLYSSERPSFIELEEHVRAVKNPQQQTTTEEA | – | – | – | – | – | 1.32 ± 0.061 | 1.57 | 2.1 | – | – | – | – |
| MLINIGRLLMLCVWGFLILNLVHPFPRPLNIFVNVALIFTVLMHGMQLALLKSTLPKDGPQMTTAEKVRIFLFGVFELLAWQKKFKVKK | 6.84 | – | 7.72 | 6.85 | 6.18 | 3.25 | – | – | 4.21 | – | 6.22 | 12.6 |
| MLIPWQDLSPETLENLIESFVLREGTDYGEHERTLEQKVADVKRQLQCGEAVLVWSELHETVNIMPRSQFRE | 5.2 | 3.21 | – | 4.14 | – | – | 3.93 | – | – | – | 4.61 | 7.98 |
| MLIRVEIPIDAPGIDALLRRSFESDAEAKLVHDLREDGFLTLGLVATDDEGQVIGYVAFSPVDVQGEDLQWVGMAPLAVDEKYRGQGLARQLVYEGLDSLNEFGYAAVVTLGDPALYSRFGFELAAHHDLRCRWPGTESAFQVHRLADDALNGVTGLVEYHEHFNRF | 5.29 ± 0.2 | 4.46 ± 0.13 | 4.22 ± 0.15 | 4.44 ± 0.37 | 3.73 ± 0.17 | 3.02 ± 0.3 | – | 9.91 ± 0.78 | 4.51 ± 0.72 | 7.82 ± 0.18 | 5.72 ± 0.43 | 11.7 ± 0.65 |
